Laboratory results as given in patent US20230038638A1, “COMPLEMENT FACTOR I-RELATED COMPOSITIONS AND METHODS” (published 2023).

Key:
human C4b (human) = target: T1, human C4b (human) (UniProt P0C0L4)
T1 sequence: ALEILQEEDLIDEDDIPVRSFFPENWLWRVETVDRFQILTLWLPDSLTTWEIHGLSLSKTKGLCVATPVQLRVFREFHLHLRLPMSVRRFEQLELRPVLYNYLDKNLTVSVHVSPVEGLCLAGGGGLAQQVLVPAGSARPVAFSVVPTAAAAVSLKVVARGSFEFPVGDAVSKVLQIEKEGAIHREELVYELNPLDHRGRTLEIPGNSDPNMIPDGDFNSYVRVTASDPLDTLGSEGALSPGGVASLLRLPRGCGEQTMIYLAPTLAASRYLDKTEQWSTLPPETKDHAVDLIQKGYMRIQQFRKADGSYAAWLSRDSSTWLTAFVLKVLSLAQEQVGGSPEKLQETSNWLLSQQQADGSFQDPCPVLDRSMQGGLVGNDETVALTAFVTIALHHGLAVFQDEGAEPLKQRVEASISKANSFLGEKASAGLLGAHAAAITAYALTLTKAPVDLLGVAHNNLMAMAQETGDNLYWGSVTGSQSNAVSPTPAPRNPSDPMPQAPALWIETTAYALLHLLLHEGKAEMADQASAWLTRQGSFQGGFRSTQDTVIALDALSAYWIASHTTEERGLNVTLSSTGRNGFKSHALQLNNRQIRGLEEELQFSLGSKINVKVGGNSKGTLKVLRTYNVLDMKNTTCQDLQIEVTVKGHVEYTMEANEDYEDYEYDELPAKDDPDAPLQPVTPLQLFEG

[1] = target: soluble human C3b (human) (UniProt P01024)

Substance | C4b Screen Ref Fold (fold of reference) (human C4b (human)) | iC3b Screen Ref Fold (fold of reference) [1] | C4b Screen Ref Fold (fold of CFI-HSA wild type) (human C4b (human)) | iC3b Screen Ref Fold (fold of CFI-HSA wild type) [1]
CFI-HSA variant K458A (enzyme) | 0.11 | 0.71 |  | 
CFI-HSA Y408L; N531G; E457G; F464Y (enzyme) |  |  | 6.45 | 0.84
CFI-HSA Y408L; E457G; S507A; N531G (enzyme) |  |  | 0.12 | -0.01
CFI-HSA H362T; V463S; R456I; D459W; S343K (enzyme) |  |  | 0.04 | -0.02
CFI-HSA variant Y408S (enzyme) | -0.05 | 0.32 |  | 
CFI-HSA variant N531G; S507A (enzyme) |  |  | -0.07 | -0.03
CFI-HSA Y408L; E457G; E461Q; F464Y (enzyme) |  |  | 5.88 | 1.45
CFI-HSA Y408L; R462K; F464Y (enzyme) |  |  | 0.27 | 0.19
CFI-HSA variant N531I (enzyme) | 0.36 | 0.24 |  | 
CFI-HSA fusion WT; GGSSGG (SEQ ID NO: 6); CR1(ccp15); CR1(ccp16); fH(ccp3); fH(ccp4) (from UniProt P17927) (enzyme) | 0.25 | -0.01 |  | 
CFI-HSA T346K; Y408L; N531G (enzyme) |  |  | 4.81 | 1.1
CFI-HSA variant E461N (enzyme) | 2.52 | 1.15 |  | 
CFI-HSA Y408L; E461Q; R462K; F464Y (enzyme) |  |  | 2.43 | 0.74
CFI-HSA variant D425K; Y408M; E530F; F537K; K504R (enzyme) |  |  | 0.15 | 0.02
CFI-HSA D506P (enzyme) |  |  | 0.18 | -0.04
CFI-HSA D506F (enzyme) |  |  | 0.35 | -0.03
CFI-HSA variant W381G; P384G; V390G (enzyme) | 0.12 | -0.02 |  | 
CFI-HSA variant G344R; Y408L; N531G (enzyme) | 3.03 | 0.98 |  | 
CFI-HSA Y408L; S507A; N531G; GGSSGG (SEQ ID NO: 6); CCP_1-4 (enzyme) |  |  | 0.1 | 0.01
CFI-HSA variant P558S; S507A (enzyme) |  |  | 0.08 | -0.04
CFI-HSA variant E461G (enzyme) | 0.31 | 0.94 |  | 
CFI-HSA F208Y (enzyme) |  |  | 0.6 | 1.5
CFI-HSA variant E530Y; P558S (enzyme) |  |  | 0.43 | 1.62
CFI-HSA T407G; Y408L; E457G (enzyme) |  |  | 0.12 | 0.74
CFI-HSA T407G; Y408L; E457G; N531G (enzyme) |  |  | 0.67 | 0.56
CFI-HSA variant R557A; N531M; Y403F; K504Y; E457N; E461T (enzyme) |  |  | 3.13 | 0.24
CFI-HSA variant D425K; S507A (enzyme) |  |  | 0.01 | -0.03
CFI-HSA variant R557A; S507A (enzyme) |  |  | 0.08 | -0.02
CFI-HSA variant L386G (enzyme) |  |  | 0.07 | 0.54
CFI-HSA T346R; Y408L; K504E; E530R; N531G (enzyme) |  |  | 0.1 | 0.67

Now from value to substance:

C4b Screen Ref Fold (fold of reference) (human C4b (human)) | iC3b Screen Ref Fold (fold of reference) [1] | C4b Screen Ref Fold (fold of CFI-HSA wild type) (human C4b (human)) | iC3b Screen Ref Fold (fold of CFI-HSA wild type) [1] | Substance
 |  | 1.39 | 1.42 | CFI-HSA K534Y (enzyme)
 |  | 0.21 | 0.78 | CFI-HSA variant K419G (enzyme)
 |  | 1.84 | 1.14 | CFI-HSA F480Y (enzyme)
 |  | 4.83 | 1.51 | CFI-HSA Y408L; E461Q; F464Y (enzyme)
0.03 | 0.01 |  |  | CFI-HSA variant I322T (enzyme)
2.94 | 0.91 |  |  | CFI-HSA variant N531Y (enzyme)
 |  | 0.19 | 0.3 | CFI-HSA P535F (enzyme)
 |  | 6.36 | 1.18 | CFI-HSA Y408L; E457G; E461Q (enzyme)
-0.07 | 0 |  |  | CFI-HSA variant G469L; R456N; K458A (enzyme)
 |  | 4.69 | 1.23 | CFI-HSA E461Q; R462K (enzyme)
0.36 | 0.33 |  |  | CFI-HSA variant Q409G (enzyme)
 |  | 0.03 | 0.05 | CFI-HSA D506N (enzyme)
 |  | -0.02 | -0.04 | CFI-HSA variant Y408M; S507A (enzyme)
 |  | 0.05 | -0.01 | CFI-HSA variant T377G; S507A (enzyme)
 |  | 2.14 | 0.58 | CFI-HSA P535S (enzyme)
 |  | 0.18 | 0.22 | CFI-HSA variant R388G (enzyme)
 |  | 0.45 | 0.24 | CFI-HSA P535E (enzyme)
 |  | 1.47 | 1.15 | CFI-HSA variant G406A; Y403F (enzyme)
 |  | 0.46 | 1.43 | CFI-HSA T407G; Y408L; N531G (enzyme)
 |  | 4.82 | 0.96 | CFI-HSA E457G; R462K; F464Y (enzyme)
0.42 | 0 |  |  | CFI-HSA fusion WT; GGSSGG (SEQ ID NO: 6); fH(ccp1); CR1(ccp16); CR1(ccp17); fH(ccp4) (from UniProt P17927) (enzyme)
 |  | -0.02 | 0 | CFI-HSA D506S (enzyme)
